Source: publication PMC8816864 (Proteins, 2021)

B1: HSP60 (GFP fusion) (natural protein, S. cerevisiae, UniProt P19882 26-572, looked up)
chain: ELKFGVEGRASLLKGVETLAEAVAATLGPKGRNVLIEQPFGPPKITKDGVTVAKSIVLKDKFENMGAKLLQEVASKTNEAAGDGTTSATVLGRAIFTESVKNVAAGCNPMDLRRGSQVAVEKVIEFLSANKKEITTSEEIAQVATISANGDSHVGKLLASAMEKVGKEGVITIREGRTLEDELEVTEGMRFDRGFISPYFITDPKSSKVEFEKPLLLLSEKKISSIQDILPALEISNQSRRPLLIIAEDVDGEALAACILNKLRGQVKVCAVKAPGFGDNRKNTIGDIAVLTGGTVFTEELDLKPEQCTIENLGSCDSITVTKEDTVILNGSGPKEAIQERIEQIKGSIDITTTNSYEKEKLQERLAKLSGGVAVIRVGGASEVEVGEKKDRYDDALNATRAAVEEGILPGGGTALVKASRVLDEVVVDNFDQKLGVDIIRKAITRPAKQIIENAGEEGSVIIGKLIDEYGDDFAKGYDASKSEYTDMLATGIIDPFKVVRSGLVDASGVASLLATTEVAIVDAPEPPAAAGAGGMPGGMPGMPGMM
B2: SSA1-GFP (natural protein)
chain: not shown
B3: HSP82 (GFP fusion) (natural protein)
chain: not shown
B4: SSA2-GFP (natural protein)
chain: not shown
B5: HSP26 (GFP fusion) (natural protein, S. cerevisiae, UniProt P15992 1-214, looked up)
chain: MSFNSPFFDFFDNINNEVDAFNRLLGEGGLRGYAPRRQLANTPAKDSTGKEVARPNNYAGALYDPRDETLDDWFDNDLSLFPSGFGFPRSVAVPVDILDHDNNYELKVVVPGVKSKKDIDIEYHQNKNQILVSGEIPSTLNEESKDKVKVKESSSGKFKRVITLPDYPGVDADNIKADYANGVLTLTVPKLKPQKDGKNHVKKIEVSSQESWGN
B6: HSC82 (GFP fusion) (natural protein)
chain: not shown
B7: eRF1-GFP (natural protein, S. cerevisiae, UniProt P12385 1-437, looked up)
chain: MDNEVEKNIEIWKVKKLVQSLEKARGNGTSMISLVIPPKGQIPLYQKMLTDEYGTASNIKSRVNRLSVLSAITSTQQKLKLYNTLPKNGLVLYCGDIITEDGKEKKVTFDIEPYKPINTSLYLCDNKFHTEVLSELLQADDKFGFIVMDGQGTLFGSVSGNTRTVLHKFTVDLPKKHGRGGQSALRFARLREEKRHNYVRKVAEVAVQNFITNDKVNVKGLILAGSADFKTDLAKSELFDPRLACKVISIVDVSYGGENGFNQAIELSAEALANVKYVQEKKLLEAYFDEISQDTGKFCYGIDDTLKALDLGAVEKLIVFENLETIRYTFKDAEDNEVIKFAEPEAKDKSFAIDKATGQEMDVVSEEPLIEWLAANYKNFGATLEFITDKSSEGAQFVTGFGGIGAMLRYKVNFEQLVDESEDEYYDEDEGSDYDFI

molecular target: T1, Flag-eRF1 (S. cerevisiae, UniProt P12385 1-437); assay: co-IP + AUC

| Binder | normalized AU-FDS intensity relative to SUP35-GFP (19S peak) | normalized AU-FDS intensity relative to SUP35-GFP (28S peak) | normalized AU-FDS intensity relative to SUP35-GFP (39S peak) | normalized AU-FDS intensity relative to SUP35-GFP (57S peak) | normalized AU-FDS intensity relative to SUP35-GFP (77S-200S) |
| --- | --- | --- | --- | --- | --- |
| B1 | 0.069 | 0.11 | 0.1 | 0.11 | 0.13 |
| B2 | 0.29 | 0.37 | 0.28 | 0.28 | 0.31 |
| B3 | 0.066 | 0.13 | 0.075 | 0.058 | 0.027 |
| B4 | 0.28 | 0.35 | 0.36 | 0.27 | 0.38 |
| B5 | 0.087 | 0.12 | 0.056 | 0.052 | 0.065 |
| B6 | 0.08 | 0.088 | 0.11 | 0.11 | 0.083 |

molecular target: T1, Flag-eRF1; assay: co-IP + AUC; remark: another data set of the same source

| Binder | % abundance in the Flag-eRF1 pull-down normalized to SUP35 (19S-200S) [%] |
| --- | --- |
| B1 | 11 ± 0.75 |
| B7 | 13 ± 4.5 |
| B2 | 30 ± 0.63 |
| B3 | 8.6 ± 2.9 |
| B4 | 33 ± 3.45 |
| B5 | 7.6 ± 2.9 |
| B6 | 9.5 ± 3.5 |
